Test results from PMC6491433 (2019).

T1: H-NS (Escherichia coli, UniProt P0ACF8)
T1 chain: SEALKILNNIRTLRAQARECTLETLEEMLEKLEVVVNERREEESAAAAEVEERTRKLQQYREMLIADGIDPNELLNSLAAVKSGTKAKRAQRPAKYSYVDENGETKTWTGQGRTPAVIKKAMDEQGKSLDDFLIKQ


Columns and labels:
[1] = target: H-NSW, variant of H-NS with a tryptophan at its C-terminus (E. coli) (UniProt P0ACF8); assay: fluorescence polarisation; steady-state tryptophan anisotropy; 2 uM H-NSW with ~30 nM to ~140 uM H-NS (tyrosine variant); excitation 295 nm; 170 mM ionic strength, 5 °C and 37 °C; apparent; fit to monomer-dimer (1:1) equilibrium
Cnu (E. coli) [2] = assay: other fluorescence titration; ~2 uM Cnu with ~30 nM to ~140 uM H-NS; W67 emission on excitation at 295 nm, intensity-averaged wavenumber; Hill fit; apparent; 170 mM ionic strength, sodium phosphate pH 8.0; temperatures from 5 to 37 °C
Cnu (E. coli) [3] = assay: other fluorescence titration; ~2 uM Cnu with ~30 nM to ~140 uM H-NS; W67 emission on excitation at 295 nm, intensity-averaged wavenumber; Hill fit; apparent; 500 mM ionic strength, sodium phosphate pH 8.0; temperatures from 5 to 37 °C
H-NS = target: T1, H-NS; assay: fluorescence anisotropy

| Binder | Kd [1] | minimum oligomerization concentration [1] | fold increase in affinity against 500 mM IS (Cnu (E. coli) [2]) | K1/2 (Cnu (E. coli) [3]) | Kd (H-NS) |
| --- | --- | --- | --- | --- | --- |
| H-NS (residues 1-59 of the N-terminal domain), the tyrosine variant (domain or fragment) MSEALKILNNIRTLRAQARESTLETLEEMLEKLEVVVNERREEESAAAAEVEERTRKLY | 100 to 150 µM | 10 µM | 4 fold | 100 µM |  |
| Cnu (protein) MTVQDYLLKFRKISSLESLEKLYDHLNYTLTDDQELINMYRAADHRRAELVSGGRLFDLGQVPKSVWHYVQ |  |  |  |  | ~125 µM |
